Test results: PMC8203837, “Optogenetically-induced multimerization of the dopamine transporter increases uptake and trafficking to the plasma membrane” (The Journal of Biological Chemistry, 2021)

How the values were obtained:
[1] = target: Cry2–mCh–DAT, optogenetic fusion chimera of cryptochrome 2 and DAT with an mCherry fluorescent reporter (Arabidopsis | not stated) (UniProt Q01959)
[2] = target: Cry2–mCh–DAT, optogenetic fusion chimera of cryptochrome 2 and DAT with an mCherry fluorescent reporter (Arabidopsis | not stated) (UniProt Q01959); experiment: cell-surface biotinylation, SDS-PAGE and Western blot; HEK293 cells transfected with Cry2–DAT, kept in the dark (control); sulfo-NHS-SS-biotin at 4 °C, NeutrAvidin beads, 4–15% gradient gel
[3] = target: the molecule itself; experiment: cross-linking; as a1, but cells treated with 10 μM DA for 0.5, 2, 10, 30 or 60 min before copper phenanthroline cross-linking
[4] = target: the molecule itself; experiment: cross-linking; as a1, but cells treated with 10 μM METH for 0.5, 2, 10, 30 or 60 min before copper phenanthroline cross-linking
[5] = target: the molecule itself; experiment: cross-linking; HEK293 cells stably expressing YFP–DAT, vehicle control; copper phenanthroline (100 μM CuSO4, 400 μM 1,10-phenanthroline) in PBS 10 min at RT, NEM quench, membrane enrichment (Mem-PER Plus), samples not heated, Western blot

Row | Molecule | IDT307 uptake in differentiated SH-SY5Y cells expressing Cry2–DAT, blue light against no blue light [1] | stoichiometry N [2] | stoichiometry N [3] | stoichiometry N [4] | stoichiometry N [5]
1 | Cry2–mCh–DAT, optogenetic fusion chimera of cryptochrome 2 and DAT with an mCherry fluorescent reporter (from UniProt Q01959 1-620) | 2.5 fold | 2 |  |  | 
2 | YFP–DAT (dopamine transporter with N-terminal YFP) (natural protein, UniProt Q01959 1-620, looked up, dopamine transporter (DAT); also called YFPsynDAT; source: HEK293 cells stably expressing YFP–DAT, in or on cells; not shown: YFP, N-terminal, kept) MSKSKCSVGLMSSVVAPAKEPNAVGPKEVELILVKEQNGVQLTSSTLTNPRQSPVEAQDRETWGKKIDFLLSVIGFAVDLANVWRFPYLCYKNGGGAFLVPYLLFMVIAGMPLFYMELALGQFNREGAAGVWKICPILKGVGFTVILISLYVGFFYNVIIAWALHYLFSSFTTELPWIHCNNSWNSPNCSDAHPGDSSGDSSGLNDTFGTTPAAEYFERGVLHLHQSHGIDDLGPPRWQLTACLVLVIVLLYFSLWKGVKTSGKVVWITATMPYVVLTALLLRGVTLPGAIDGIRAYLSVDFYRLCEASVWIDAATQVCFSLGVGFGVLIAFSSYNKFTNNCYRDAIVTTSINSLTSFSSGFVVFSFLGYMAQKHSVPIGDVAKDGPGLIFIIYPEAIATLPLSSAWAVVFFIMLLTLGIDSAMGGMESVITGLIDEFQLLHRHRELFTLFIVLATFLLSLFCVTNGGIYVFTLLDHFAAGTSILFGVLIEAIGVAWFYGVGQFSDDIQQMTGQRPSLYWRLCWKLVSPCFLLFVVVVSIVTFRPPHYGAYIFPDWANALGWVIATSSMAMVPIYAAYKFCSLPGSFREKLAYAIAPEKDRELVDRGEVRQFTLRHWLKV |  |  | 4 | 3 | 2
